± gives the standard deviation of the averaged measurements.
Assay: total protein half-life in vivo (active degradation + dilution); higher = more stable protein
[1] = E. coli NCM3722 delta-clpP delta-lon delta-hslV, growth: N-lim chemostat, doubling time 6 h
[2] = E. coli NCM3722 delta-clpP, growth: N-lim chemostat, doubling time 6 h
[3] = E. coli NCM3722 delta-hslV, growth: N-lim chemostat, doubling time 6 h
[4] = E. coli NCM3722 delta-lon, growth: N-lim chemostat, doubling time 6 h
[5] = E. coli NCM3722 delta-smpB, growth: N-lim chemostat, doubling time 6 h
[6] = wild type E. coli NCM3722, growth: C-lim chemostat, doubling time 3 h
[7] = wild type E. coli NCM3722, growth: C-lim chemostat, doubling time 6 h
[8] = wild type E. coli NCM3722, growth: C-lim chemostat, doubling time 12 h
[9] = wild type E. coli NCM3722, growth: N-lim chemostat, doubling time 6 h
[10] = wild type E. coli NCM3722, growth: N-lim chemostat, doubling time 12 h
[11] = wild type E. coli NCM3722, growth: P-lim chemostat, doubling time 6 h
[12] = wild type E. coli NCM3722, growth: P-lim chemostat, doubling time 12 h

Sequence	total protein half-life in vivo [1] [h]	total protein half-life in vivo [2] [h]	total protein half-life in vivo [3] [h]	total protein half-life in vivo [4] [h]	total protein half-life in vivo [5] [h]	total protein half-life in vivo [6] [h]	total protein half-life in vivo [7] [h]	total protein half-life in vivo [8] [h]	total protein half-life in vivo [9] [h]	total protein half-life in vivo [10] [h]	total protein half-life in vivo [11] [h]	total protein half-life in vivo [12] [h]
MCTTCGCGEGNLYIEGDEHNPHSAFRSAPFAPAARPKMKITGIKAPEFTPSQTEEGDLHYGHGEAGTHAPGMSQRRMLEVEIDVLDKNNRLAERNRARFAARKQLVLNLVSSPGSGKTTLLTETLMRLKDSVPCAVIEGDQQTVNDAARIRATGTPAIQVNTGKGCHLDAQMIADAAPRLPLDDNGILFIENVGNLVCPASFDLGEKHKVAVLSVTEGEDKPLKYPHMFAAASLMLLNKVDLLPYLNFDVEKCIACAREVNPEIEIILISATSGEGMDQWLNWLETQRCA [P0AAN3]	4.03 ± 0.57	3.15	2.72 ± 0.035	3.48 ± 0.13	3.079 ± 0.0096	2.29 ± 0.11	4.19 ± 0.074	6.66 ± 0.1	3.14 ± 0.63	3.83 ± 0.63	3.69 ± 0.052	7.22 ± 0.56
MLKRCLSPLTLVNQVALIVLLSTAIGLAGMAVSGWLVQGVQGSAHAINKAGSLRMQSYRLLAAVPLSEKDKPLIKEMEQTAFSAELTRAAERDGQLAQLQGLQDYWRNELIPALMRAQNRETVSADVSQFVAGLDQLVSGFDRTTEMRIETVVLVHRVMAVFMALLLVFTIIWLRARLLQPWRQLLAMASAVSHRDFTQRANISGRNEMAMLGTALNNMSAELAESYAVLEQRVQEKTAGLEHKNQILSFLWQANRRLHSRAPLCERLSPVLNGLQNLTLLRDIELRVYDTDDEENHQEFTCQPDMTCDDKGCQLCPRGVLPVGDRGTTLKWRLADSHTQYGILLATLPQGRHLSHDQQQLVDTLVEQLTATLALDRHQERQQQLIVMEERATIARELHDSIAQSLSCMKMQVSCLQMQGDALPESSRELLSQIRNELNASWAQLRELLTTFRLQLTEPGLRPALEASCEEYSAKFGFPVKLDYQLPPRLVPSHQAIHLLQIAREALSNALKHSQASEVVVTVAQNDNQVKLTVQDNGCGVPENAIRSNHYGMIIMRDRAQSLRGDCRVRRRESGGTEVVVTFIPEKTFTDVQGDTHE [P0AFA2]	6.01 ± 0.078	6.25 ± 0.066		5.32 ± 0.25	5.44 ± 0.34	3.11 ± 0.058	5.44 ± 0.39	10.9 ± 0.31	5.65 ± 0.069	11.1 ± 0.78	6.05 ± 0.12	11 ± 1.5
MVSSFTSAPRSGFYYFAQGWKLVSQPGIRRFVILPLLVNILLMGGAFWWLFTQLDVWIPTLMSYVPDWLQWLSYLLWPLAVISVLLVFGYFFSTIANWIAAPFNGLLAEQLEARLTGATPPDTGIFGIMKDVPRIMKREWQKFAWYLPRAIVLLILYFIPGIGQTVAPVLWFLFSAWMLAIQYCDYPFDNHKVPFKEMRTALRTRKITNMQFGALTSLFTMIPLLNLFIMPVAVCGATAMWVDCYRDKHAMWR [P0A6J3]	6.46		5.84	6.33 ± 0.76	6.144 ± 0.028	3.19 ± 0.53	5.49 ± 0.6	12.3	6.67	13.7 ± 1.9	7.18	13.2 ± 0.26
MAGESFILMGVSGSGKTLIGSKVAALLSAKFIDGDDLHPAKNIDKMSQGIPLSDEDRLPWLERLNDASYSLYKKNETGFIVCSSLKKQYRDILRKGSPHVHFLWLDGDYETILARMQRRAGHFMPVALLKSQFEALERPQADEQDIVRIDINHDIANVTEQCRQAVLAIRQNRICAKEGSASDQRCE	4.25					2.82 ± 0.78	2.8 ± 0.43	3.67	1.6			
MNSFNEGVVSPLLSFWRRSLMLAGALLLTACSHNSSLPPFTASGFAEDQGAVRIWRKDSGDNVHLLAVFSPWRSGDTTTREYRWQGDNLTLININVYSKPPVNIRARFDDRGDLSFMQRESDGEKQQLSNDQIDLYRYRADQIRQISDALRQGRVVLRQGRWHAMEQTVTTCEGQTIKPDLDSQAIAHIERRQSRSSVDVSVAWLEAPEGSQLLLVANSDFCRWQPNEKTF	6.47 ± 1.2	7.12 ± 0.33	6.4	6.98	6.11 ± 0.48	3.17 ± 0.14		11.2	6.3 ± 0.074	13.2 ± 1.6	6.31 ± 0.4	14.1 ± 1.4
MNLLIDNWIPVRPRNGGKVQIINLQSLYCSRDQWRLSLPRDDMELAALALLVCIGQIIAPAKDDVEFRHRIMNPLTEDEFQQLIAPWIDMFYLNHAEHPFMQTKGVKANDVTPMEKLLAGVSGATNCAFVNQPGQGEALCGGCTAIALFNQANQAPGFGGGFKSGLRGGTPVTTFVRGIDLRSTVLLNVLTLPRLQKQFPNESHTENQPTWIKPIKSNESIPASSIGFVRGLFWQPAHIELCDPIGIGKCSCCGQESNLRYTGFLKEKFTFTVNGLWPHPHSPCLVTVKKGEVEEKFLAFTTSAPSWTQISRVVVDKIIQNENGNRVAAVVNQFRNIAPQSPLELIMGGYRNNQASILERRHDVLMFNQGWQQYGNVINEIVTVGLGYKTALRKALYTFAEGFKNKDFKGAGVSVHETAERHFYRQSELLIPDVLANVNFSQADEVIADLRDKLHQLCEMLFNQSVAPYAHHPKLISTLALARATLYKHLRELKPQGGPSNG	5.99 ± 0.51				2.728 ± 0.0011		3.27	6.24			2.97	6.78 ± 1.8
MLPFLKAPADAPLMTDKYEIDARYRYWRRHILLTIWLGYALFYFTRKSFNAAVPEILANGVLSRSDIGLLATLFYITYGVSKFVSGIVSDRSNARYFMGIGLIATGIINILFGFSTSLWAFAVLWVLNAFFQGWGSPVCARLLTAWYSRTERGGWWALWNTAHNVGGALIPIVMAAAALHYGWRAGMMIAGCMAIVVGIFLCWRLRDRPQALGLPAVGEWRHDALEIAQQQEGAGLTRKEILTKYVLLNPYIWLLSFCYVLVYVVRAAINDWGNLYMSETLGVDLVTANTAVTMFELGGFIGALVAGWGSDKLFNGNRGPMNLIFAAGILLSVGSLWLMPFASYVMQATCFFTIGFFVFGPQMLIGMAAAECSHKEAAGAATGFVGLFAYLGASLAGWPLAKVLDTWHWSGFFVVISIAAGISALLLLPFLNAQTPREA	7.27	6.56 ± 0.2	5.26	5.43 ± 0.18	6.52 ± 0.92	2.81	6.04	10.4	5.01 ± 2.2	> 16		10.6 ± 1.1

From the supplement of paper PMC11246515
